# Test: yeast display, Sf9 membrane polyspecificity reagent, FACS + sequencing; frameworks hold sequencing errors
# Outline: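 Sorting gates, low and high (top ~1%), were placed on anti-HA fluorescence to track expression and on streptavidin fluorescence to track reagent binding. A clone's polyreactivity label is taken from the gate it came out of. The reagent was 10% biotinylated, detergent-solubilized Sf9 membrane, applied for 1 hour at 4 °C to galactose-induced yeast display cells.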
row,Sequence,polyreactivity (PSR sort gate)
1,QVQLVESGGGLVQAGGSLRLSCAASGSIFFTNAKGLSRQAPGKERELVAAITSSGTRTYYADSVKGRFTISRDNAKNTVYLQKNSLKPEDTAVYYCAVEVQYKYDYSHTYRYYYWGQGSQVTVSS,high polyreactivity
2,QVQLVESGGGLVQAGGSLRLSCAASGSIFFVNAMGWYRQAPGKERELVAAITWNAGRTYYADSVKGRFTISRDNAKNTVYLQMNSLKPEDTAVYYCNARAYYSSAIYDYWGQGTQVTVSS,low polyreactivity
3,QVQLVESGGGLVQAGGSLRLSCAASGSIFFWYAMGWYRQAPGKERELVAAISRGGRTTYADSVKGRFTISRDNAKNTVYLQMNSLKPEDTAVYYCAAYRYFTYFYYSDYPYNYWGQGTQVTVSS,high polyreactivity
4,QVQLVESGGGLVQAGGSLRLSCAASGSIFFYALGWYRQAPGKERELVADITYTGGSKYADSVKGRFTISRDNAKNTVYLQLNRLKPEDTAVYYCAKLDGGLFDYWGQGTQVTVSS,low polyreactivity
5,QVQLVESGGGLVQAGGSLRLSCAASGSIFFYYAMGRYRQAPGKEMELVATINIGAGSTNYADSVKGRFTISRDNAKNTVYLQMNSLKPEDTAVYYCAADVNFYQDYIYLTDYDYWGQGTQVTVSS,low polyreactivity
6,QVQLVESGGGLVQAGGSLRLSCAASGSIFFYYAMGRYRQARGKERQLVAAISYSDGTTYYADSVKGRFTISRDNAKNTVYLQMNSLKPEDTAVYYCAADLWVGLVTLWDGYVQYDYWGQGTQVTVSS,low polyreactivity
7,QVQLVESGGGLVQAGGSLRLSCAASGSIFFYYAMGWYRQAPGKERELVAAINSDGSTNYADSVKGRFTISRDNAKNTVYLQMNSLKPEDTAVYYCNADTPYYQGEYNYWGQGTQVTVSS,low polyreactivity
8,QVQLVESGGGLVQAGGSLRLSCAASGSIFFYYAMGWYRQAPGKERELVATITSGGSTSYADSVKGRFTISRDNAKNTVYLQMNSLKPEDTAVYYCAARKVTKSTYNYWGQGTQVTVSS,low polyreactivity
9,QVQLVESGGGLVQAGGSLRLSCAASGSIFGANAMGLYRQAPGKERELLATITLRDGSTYYADSVKGRFTISRDNAKNTVYLQRNSLKPEDTAVYYCATYYSAINYGCSKTILYDYWGQGTQVTVSS,low polyreactivity
10,QVQLVESGGGLVQAGGSLRLSCAASGSIFGANAMGWYRQAPAKEWELVAAITRGGRTNYADSVKGRFTISRDNAKISVYLQMNSLKPEDTAVYYCNAAWGTGRWAGYISGGDWGQGTHVTVSS,high polyreactivity
11,QVQLVESGGGLVQAGGSLRLSCAASGSIFGANAMGWYRQAPGKERELVAAISTRGGRTYYADSVKGRFTISRDIAKNTVYLQMNSLKPEDTAVYYCAAYSSYPEYRRGKYDYWGQGTQVTVSS,high polyreactivity
12,QVQLVESGGGLVQAGGSLRLSCAASGSIFGANAMGWYRQAPGTVRELVAAISRRGGSTYYADSVKGRFTISRDNAKNTVHLQMNSLKPEDTAVYYCNTYPQSLGVKYGYWGQGTQVTVSS,high polyreactivity
13,QVQLVESGGGLVQAGGSLRLSCAASGSIFGANGMGWYRQAPGKESELVAASTSGGSTTYADYVKGRFTISRDNAKNTVYLQINSLKPEDTAVYYCAADECTPYWPVDNFDYWGQGTQVTVSS,low polyreactivity
14,QVQLVESGGGLVQAGGSLRLSCAASGSIFGAYAMGWYRQAPGKERELVAAISWRDGSTYYADSVKGRFTISRDNAKNTVYLQMNSLKPEDTAVYYCAAEYVYIFYDSDYWGQGTQVTVSS,high polyreactivity
15,QVQLVESGGGLVQAGGSLRLSCAASGSIFGAYAMGWYRQAPGKERELVAVISRSGGRTYYADSVKGRFTISRDNAKNTVYLQMNSLKPVDTAVYYCAADTRYVQYDYWGQGTQVTVSS,high polyreactivity
16,QVQLVESGGGLVQAGGSLRLSCAASGSIFGDNAMGWYRKAPGKERELVAGISSSGGRTYYADSVKGRFTISRDNAKNTVYLQMNSLKPEVTAVYYCAKEPGWGRRSTTAYDYCGQGTQVTVSS,low polyreactivity
17,QVQLVESGGGLVQAGGSLRLSCAASGSIFGDNAMGWYRQAPGKERELVARISSGGNTYYADSVKGRFSISRDNAMNTVYLQMNSLKPEDTAVYYCAAAIIVRYKKFPYYYWGQGTQVTVSS,high polyreactivity
18,QVQLVESGGGLVQAGGSLRLSCAASGSIFGDYAMGWYRQAPGKEREFVAGITRRGGRTYYADSVKGRFTISRDNAKNTVYLQMNSLKPEETAVYYCNAVYSSSLRSKYDYWGQGTQVTVSS,high polyreactivity
19,QVQLVESGGGLVQAGGSLRLSCAASGSIFGDYAMGWYRQAPGKERELVAAITSSGGITYYADSVKGRFTISRDNAKNTVYLQMNSLKPEDTAVYYCAAYGYGSNYRYTGYYYWGQGTQVTVSS,low polyreactivity
20,QVQLVESGGGLVQAGGSLRLSCAASGSIFGDYAMGWYRQAPGKERELVADISSGGSTTYADSVKGRFTISRDNAKNTVYLQMNSLKPEDTAVYYCNAERGVPYGYWGQGTQVTVSS,low polyreactivity

row,Sequence,polyreactivity (PSR sort gate)
1,QVQLVESGGGLVQAGGSLRLSCAASGSIFGDYVLGWYRQAPGKERELVASISESTDSTYYADSVKGRFTISRDNAKNTVYLQMNSLKPEDTAVYYCATAYPEWAVWGYDYWGQGTQVTVSS,low polyreactivity
2,QVQLVESGGGLVQAGGSLRLSCAASGSIFGDYVMGWNRQAPGKERELVAAINRGGSTYYADSVKGRFTISRDNAKNTVYLQMNSLKPEDTAVYYCAAGYPSWYYGYPYDSWGQGSQVTVSS,low polyreactivity
3,QVQLVESGGGLVQAGGSLRLSCAASGSIFGENAMGWYRQAPGKERELVAAITWSGASTYYADSVKGRFTISRDNAKNTVYLQMNSLKPEETAVYYCNADRYVRYSTFDYWGQGTQVTVSS,high polyreactivity
4,QVQLVESGGGLVQAGGSLRLSCAASGSIFGEYAMGWYRQAPGKERELVAAINVNGGRTYYADSVKGRFTISRDNAKNTVYLQMNSLKPEDTAVYYCNARSYASYRQGNTYGSWGQGTQVTVSS,high polyreactivity
5,QVQLVESGGGLVQAGGSLRLSCAASGSIFGEYTMGWYRQAPGKERELVAAISWNGGITYYADSVKGRFTISRDNAKNTVYLQMNSLKPEDTAVYYCAAETYPWSLFTYYSWGQGSQVTVSS,low polyreactivity
6,QVQLVESGGGLVQAGGSLRLSCAASGSIFGFKVMGWYRQEPGKERELVAAITYSGGSTYYADSVKGRFTISRANAKNTVYIQMNSLKPEDTAVYYCAADTFTPYWWYSSLDEYWGQGTQVTVSS,high polyreactivity
7,QVQLVESGGGLVQAGGSLRLSCAASGSIFGFNAMGWYRPAPGKERELVAGITSGDRTNYADSVKGRFTISRDNAKNTVYLQMNSLKPEDTAVYYCAARKYVFFKMYYWGQGTQVTVSS,low polyreactivity
8,QVQLVESGGGLVQAGGSLRLSCAASGSIFGFNAMGWYRQAPGKERELVAAINNGGSTNYADSVKGRFTISRDNAKNTVYLQMNSLKPEDTAVYYCSARLNYIRRGYWGQGTQVTVSS,high polyreactivity
9,QVQLVESGGGLVQAGGSLRLSCAASGSIFGFYAMGLYIQEPGKERELVAAITSGDSTHYADSVKGRFTISRDNAKNTVYLQMNSLKPEDTAVYYCATEYLYVDFFIRYDYWGQGTQVTVSS,low polyreactivity
10,QVQLVESGGGLVQAGGSLRLSCAASGSIFGFYAMGWYRQAPGKERELVASISSSGDSTYYADSVKGRFTISRDNAKNTVYLQINSLKPEDTAVYYCAAVVYDIYGYEFDYWGQGTQVTVSS,low polyreactivity
11,QVQLVESGGGLVQAGGSLRLSCAASGSIFGGNAMGWYRQAPGKERELVAVISWSGGSTYYADSVKGRFTISRDNAKNTVYVQMNSLKPEDTAVYYCATSSVAEAKYVTEGTFDYWGQGTQVTVSS,low polyreactivity
12,QVQLVESGGGLVQAGGSLRLSCAASGSIFGGYAMGWYRPAPGKERELVAAIDESGGSTYYADSVKGRFTISRDNAKNTVYLQMNSLKPEDTAVYYCLVFRDDSGPGDYYYWGQGTQVTVSS,low polyreactivity
13,QVQLVESGGGLVQAGGSLRLSCAASGSIFGGYAMGWYRQAPGKERELVAAISKTGGTTYYADSVKGRFTISRDNAKNTVYLQMNSLKPEDTAVYYCNAPKRYSGSAYGYGYWGQGTQVTVSS,high polyreactivity
14,QVQLVESGGGLVQAGGSLRLSCAASGSIFGGYAMGWYRQAPGKERELVAAISRTGGRTYYADSVKGRFTISRDNAKNTVYLQMNSLKPEDTAVYYCAARVVHQSRYSYEYWGQGTQVTVSS,high polyreactivity
15,QVQLVESGGGLVQAGGSLRLSCAASGSIFGGYAMGWYRQAPGKERELVAAISSGGSTYYADSVKGRFTISRDNAKNTVYLQMNSLKPEDTAVYYCATSTFAYRRNSYYYTRPRFGYWGQGTQVTVSS,high polyreactivity
16,QVQLVESGGGLVQAGGSLRLSCAASGSIFGGYAMGWYRQAPGKERELVAAITSGGGSTYYADSVKGRFTISRDNAKNTVYLQMNSLKPEDTAVYYCAALQSHGVDYDYWGQGTQVTVSS,low polyreactivity
17,QVQLVESGGGLVQAGGSLRLSCAASGSIFGGYAMGWYRQAPGKERELVASITASGGSTYYADSVKGRFTISRDNAKNTVYLQMNSLKPEDTAVYYCAAEVFSGYDYDYWGQGTQVTVSS,low polyreactivity
18,QVQLVESGGGLVQAGGSLRLSCAASGSIFGGYGMGWYRQAPGKERELVAAITSGSSTYYADSVTGRFTISRDNAKNTVYLQMNSLKPEDTAVYYCAARPYPHSAYEGDYWGRGTQVTVSS,low polyreactivity
19,QVQLVESGGGLVQAGGSLRLSCAASGSIFGGYGMGWYRQAPGKERELVAVITKRGGSTYYADSVKGRFTISRDNAKNTVYLQMNSLKPEDTAVYYCNKVGYYASVLGYDYWGQGTQVTVSS,high polyreactivity
20,QVQLVESGGGLVQAGGSLRLSCAASGSIFGGYTMGWYRQAPGKERELVAAISARGGNTYYADSVKGRFTISRDNAKNTVYLQMNSLKPEDTAVYYCAKVRYTQSYRGYGYWGQGTQVTVSS,high polyreactivity

# — the nanobody polyreactivity screen of Harvey et al. (2022)
